This note sets out measurements from US20150023967A1 (published 2015).

In assay [1] the target is BCMA 101 x CD3. The assay is described as follows: SPR (Biacore). (Surface plasmon resonance follows binding to a sensor surface in real time, without labels.)
The target of assay [2] is BCMA 102 x CD3. The assay is described as follows: SPR (Biacore).

B1: Human BCMA (other)
chain (part 1 of 2): MLQMAGQCSQNEYFDSLLHACIPCQLRCSSNTPPLTCQRYCNASVTNSVKGTNASGGGGSEAHKSEIAHRYNDLGEQHFKGLVLIAFSQYLQKCSYDEHAKLVQEVTDFAKTCVADESAANCDKSLHTLFGDKLCAIPNLRENYGELADCCTKQEPERNECFLQHKDDNPSLPPFERPEAEAMCTSFKENPTTFMGHYLHEVARRHPYFYAPELLYYAEQYNEILTQCCAEADKESCLTPKLDGVKEKALVSSVRQRMKCSSMQKFGERAFKAWAVARLSQTFPNADFAEITKLATDLTKVNKECCHGDLLECADDRAELAKYMCENQATISSKLQTCCDKPLLKKAHCLSEVEHDTMPADLPAIAADFVEDQEVCKNYAEAKDVFLGTFLYEYSRRHPDYSVSLLLRLAKKYEATLEKCCAEANPPACYGTVLAEFQPLVEEPKNLVKTNCDLYEKLGEYGFQNAILVRYTQKAPQVSTPTLVEAARNLGRVGTKCCTLPEDQRLPCVEDYLSAILNRVCLLHEKTPVSEHVTKCCSGSLVERRPCFSALTVDETYVPKEFKAETFTFHSDICTLPEKEKQIKKQTALAELVKHKPKATAEQLKTVMDDFAQFLDTCCKAADKDTCFSTEGPNLVTRCKDALA
chain (part 2 of 2): SGHHGGHHGGHH
As for B1, the Kd (in general, a measure of binding affinity in units of concentration) is 0.5 nM in assay [1] and 0.6 nM in assay [2].
